Assay results published in patent US11306156.
One block for each substance: values may come before it.

Key:
[1] = biological target: tissue factor (TF) antigen (UniProt P13726); assay: SPR; Fab captured by anti-His, TF as analyte; LCCA set 9823
[2] = biological target: tissue factor (TF) antigen (UniProt P13726); assay: SPR; Fab captured by anti-His, TF as analyte; LCCA set 9822
[3] = biological target: D3H44 light chain Q124R_T178R (Kabat) with N-terminal HA or FLAG tag; assay: LCCA, SPR read-out of light-chain tags; light-chain DNA 1:3 normalized to 1:1; competing light chain m22
[4] = biological target: D3H44 light chain Q124E_S131T_T178F_T180E (Kabat) with N-terminal HA or FLAG tag; assay: LCCA, SPR read-out of light-chain tags; light-chain DNA 1:3 normalized to 1:1; competing light chain m21
[5] = biological target: tissue factor (TF) antigen (UniProt P13726); assay: SPR (ProteOn), Fab captured on anti-penta-His, TF as analyte, 1:1 fit; estimated value (*) taken from the same Fab with another L chain tag
[6] = biological target: tissue factor (TF) antigen (UniProt P13726); assay: SPR (ProteOn), Fab captured on anti-penta-His, TF as analyte, 1:1 fit
[7] = biological target: tissue factor (TF) antigen (UniProt P13726); assay: SPR; Fab captured by anti-His, TF as analyte; LCCA set 9058
[8] = biological target: tissue factor (TF) antigen (UniProt P13726); assay: SPR; Fab captured by anti-His, TF as analyte; LCCA set 9820
[9] = biological target: tissue factor (TF) antigen (UniProt P13726); assay: SPR; Fab captured by anti-His, TF as analyte; LCCA set 9819
[10] = biological target: tissue factor (TF) antigen (UniProt P13726); assay: SPR; Fab captured by anti-His, TF as analyte; LCCA set 9053
[11] = biological target: tissue factor (TF) antigen (UniProt P13726); assay: SPR; Fab captured by anti-His, TF as analyte; LCCA set 9054

Change in KD with respect to wild type (-(log(KD design) - log(KD wt))) [1]: -0.18
Kd [1]: 0.24 nM
Substance: D3H44 Fab heterodimer, H Q39R_H172R_Q179K / L Q38E_Q124E_Q160E_T180E (H1L1 Fab of LCCA set 9823)

Change in KD with respect to wild type (-(log(KD design) - log(KD wt))) [2]: 0.17
Kd [2]: 0.11 nM
Substance: D3H44 Fab heterodimer, H Q39R_D146G_Q179K / L Q38E_Q124E_Q160E_T180E (H1L1 Fab of LCCA set 9822)

H1L1:H1L2 normalized median ratio [3]: 77%
H1L1:H1L2 normalized median scalar value ln(r1/f1) [3]: 1.19
H1L1:H1L2 normalized median ratio [4]: 23%
Substance: D3H44 Fab heavy chain L143E_K145T_Q179E_S188L (Kabat) with C-terminal ABD2-His6 tag

Change in KD with respect to wild type (-(log(KD design) - log(KD wt))) [5]: -0.12
Kd [5]: 0.21 nM
Change in KD with respect to wild type (-(log(KD design) - log(KD wt))) [6]: -0.12
Kd [6]: 0.21 nM
Substance: D3H44 Fab heterodimer, H L143E_K145T_S188L / L Q124R

Change in KD with respect to wild type (-(log(KD design) - log(KD wt))) [7]: 0.12
Kd [7]: 0.12 nM
Substance: D3H44 Fab heterodimer, H A139W_L143E_K145T_Q179E / L F116A_Q124R_L135V (H1L1 Fab of LCCA set 9058)

Change in KD with respect to wild type (-(log(KD design) - log(KD wt))) [8]: -0.1
Kd [8]: 0.2 nM
Substance: D3H44 Fab heterodimer, H Q39E_L143E_K145T_Q179E / L Q38R_Q124R_Q160K_T178R (H1L1 Fab of LCCA set 9820)

Change in KD with respect to wild type (-(log(KD design) - log(KD wt))) [9]: 0.03
Kd [9]: 0.15 nM
Substance: D3H44 Fab heterodimer, H Q39E_L143E_K145T_H172R_Q179E / L Q38R_Q124R_Q160K_T178R (H1L1 Fab of LCCA set 9819)

Change in KD with respect to wild type (-(log(KD design) - log(KD wt))) [10]: 0.05
Kd [10]: 0.14 nM
Change in KD with respect to wild type (-(log(KD design) - log(KD wt))) [11]: 0.05
Kd [11]: 0.14 nM
Substance: D3H44 Fab heterodimer, H A139G_Q179K_V190A / L Q124E_L135W_Q160E_T180E (H1L1 Fab of LCCA sets 9053, 9054)
